Data on one molecule can be found in PMC6238531, “The ER morphology-regulating lunapark protein induces the formation of stacked bilayer discs” (Life Science Alliance, 2018).

The assay addresses T1, SBP-tagged full-length human Lnp (human, UniProt Q9C0E8 1-428).
T1 construct: lunapark (Lnp), human, full length; a tobacco etch virus protease cut site stands between Lnp and the SBP tag; Membrane protein with two TM segments, kept in 0.05% Triton X-100 in the pull-down; also called lunapark; SBP-tagged human Lnp; source: S. cerevisiae (pRS425, GAL1 promoter), purified in Triton X-100 (streptavidin resin, biotin elution, SEC on Superose 6); not shown: SBP, C-terminal, kept
T1 sequence (looked up): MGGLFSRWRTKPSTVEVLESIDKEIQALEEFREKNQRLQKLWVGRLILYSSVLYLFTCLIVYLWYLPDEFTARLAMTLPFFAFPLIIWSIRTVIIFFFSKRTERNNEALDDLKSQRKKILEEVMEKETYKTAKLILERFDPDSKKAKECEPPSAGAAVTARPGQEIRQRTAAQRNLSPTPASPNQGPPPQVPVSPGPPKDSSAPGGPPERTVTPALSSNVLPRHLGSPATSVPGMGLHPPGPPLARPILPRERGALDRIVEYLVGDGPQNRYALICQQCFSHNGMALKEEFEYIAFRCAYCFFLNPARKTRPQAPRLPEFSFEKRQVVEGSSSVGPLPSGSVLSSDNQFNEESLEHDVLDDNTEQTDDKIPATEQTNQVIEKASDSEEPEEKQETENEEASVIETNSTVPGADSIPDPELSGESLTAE
Description: pull-down; SBP-tagged human Lnp mixed with His10-tagged Lnp (molar ratio 1:3 or 1:5), 1 h at 4°C in 20 mM Hepes pH 7.5, 100 mM KCl, 1 mM dithiothreitol, 0.05% Triton X-100; held on streptavidin resin, washed, eluted with 2 mM biotin; SDS-PAGE and Coomassie blue staining. The settings on record: both partners purified.

B1: His10-tagged full-length human Lnp (natural protein, UniProt Q9C0E8 1-428, looked up)
chain: T1 sequence (looked up)
notes: lunapark (Lnp), human, full length, cloned into pET21b; also called lunapark; source: E. coli BL21-CodonPlus (DE3)-RIPL, purified in Triton X-100 (Ni-NTA, SEC on Superose 6); not shown: His10, C-terminal, kept
As for B1, the binding result is “binds”.
